Source: paper PMC3713010, “Sox2 Transcriptionally Regulates Pqbp1, an Intellectual Disability-Microcephaly Causative Gene, in Neural Stem Progenitor Cells”

How the values were obtained:
Test in all cases: EMSA; 10% glycerol, 20 mM HEPES pH 7.8, 45 mM KCl, 10 mM NaCl, 1 mM EDTA, 1 mM DTT, 0.2 ug/uL BSA, 0.1% NP-40, 50 ng poly-dIdC; 20 ng each GST protein; room temperature 30 min (heterodimers 4 C); 6% PAGE 0.25x TBE
Conditions in all cases: protein: recombinant; tags: GST (N-terminal, pGEX-6P-1); label: 32P-dCTP fill-in of the 5' (dG)5 overhangs of both strands (Methods; control probes are given with GGG)
[1] = target: Pax6 DNA-binding domain (BD-Pax6) (Mus musculus (B6), UniProt P63015 190-289)
Pax6 DNA-binding domain (BD-Pax6), sequence (P63015 190-289): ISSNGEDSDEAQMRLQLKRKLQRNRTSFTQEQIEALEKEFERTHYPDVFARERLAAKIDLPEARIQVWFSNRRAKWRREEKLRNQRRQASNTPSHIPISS
In short: (§1)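 Candidate cis-element oligonucleotides were annealed, labelled with 32P-dCTP and tested against GST-tagged transcription factor DNA-binding domains made in E. coli BL21 and purified on glutathione-sepharose. For each binding reaction, 20 ng protein was combined with 40,000–50,000 cpm probe and 50 ng poly-dIdC in HEPES/KCl glycerol buffer containing BSA and detergent for 30 min at room temperature. Gels of 6% polyacrylamide in 0.25×TBE were run at 4°C, and band radioactivity was measured on a BAS4000 imager. The readout for DNA binding was the band signal in the expected shift region.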

[2] = target: T1, Brn2 DNA-binding domain (BD-Brn2) (Mus musculus (B6), UniProt P31360 336-435)
T1 sequence: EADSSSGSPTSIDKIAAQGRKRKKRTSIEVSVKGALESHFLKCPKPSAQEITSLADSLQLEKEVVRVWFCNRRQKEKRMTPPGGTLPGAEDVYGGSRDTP
In short: as §1

[3] = target: T2, Oct6 DNA-binding domain (BD-Oct6) (Mus musculus (B6), UniProt P21952 317-416)
T2 sequence: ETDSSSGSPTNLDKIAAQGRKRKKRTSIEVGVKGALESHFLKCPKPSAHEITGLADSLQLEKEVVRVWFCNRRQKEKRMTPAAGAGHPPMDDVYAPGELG
In short: as §1

B1: 26 (dsDNA)
DNA 1: GGGGGGTGGAGGCTTTGTGTAATCAGTCTGTGTACCCCC
DNA 2: GGGGGTACACAGACTGATTACACAAAGCCTCCACCCCCC
binding result [1]: no binding
binding result [2]: binds
binding result [3]: binds

B2: 3 (dsDNA)
DNA 1: GGGGGACCTATACTTTGTTTTTATTGCCTAGTAATCCCCC
DNA 2: GGGGGATTACTAGGCAATAAAAACAAAGTATAGGTCCCCC
binding result [1]: no binding
binding result [2]: no binding
binding result [3]: no binding

B3: 4b (dsDNA)
DNA 1: GGGGGAGTCTCTGTAAAATTAACAAACAAGTTACCCCCC
DNA 2: GGGGGGTAACTTGTTTGTTAATTTTACAGAGACTCCCCC
binding result [1]: no binding
binding result [2]: binds
binding result [3]: binds

B4: 7 (dsDNA)
DNA 1: GGGGGCAACCACCTCTAAATGCCTACAAATTGTATGGTCATCCCCC
DNA 2: GGGGGATGACCATACAATTTGTAGGCATTTAGAGGTGGTTGCCCCC
binding result [1]: no binding
binding result [2]: no binding
binding result [3]: no binding

B5: 24 (dsDNA)
DNA 1: GGGGGCTTGTATCTTTGTATGTTCACAGAAAGCAAAGTAGCGTGGCCCCC
DNA 2: GGGGGCCACGCTACTTTGCTTTCTGTGAACATACAAAGATACAAGCCCCC
binding result [1]: no binding
binding result [2]: no binding
binding result [3]: no binding

B6: 25 (dsDNA)
DNA 1: GGGGGCAGATAACTTTGTCCTTTTTGATTTTGAGTGAAGACCCCC
DNA 2: GGGGGTCTTCACTCAAAATCAAAAAGGACAAAGTTATCTGCCCCC
binding result [1]: no binding
binding result [2]: no binding
binding result [3]: no binding

B7: 18 (dsDNA)
DNA 1: GGGGGCTTAGAATTAGTAATTTCTTGATATTGTCTGTTAAGCCCCC
DNA 2: GGGGGCTTAACAGACAATATCAAGAAATTACTAATTCTAAGCCCCC
binding result [1]: binds
binding result [2]: no binding
binding result [3]: binds

B8: 21 (dsDNA)
DNA 1: GGGGGCAGAATCATTTGTGTTTTCCCATTTTTGCCAGGGGCCCCC
DNA 2: GGGGGCCCCTGGCAAAAATGGGAAAACACAAATGATTCTGCCCCC
binding result [1]: no binding
binding result [2]: no binding
binding result [3]: no binding

B9: 16b (dsDNA)
DNA 1: GGGGGGTAGCTTCACAAAGTGATTAACACATGGATACCCCC
DNA 2: GGGGGTATCCATGTGTTAATCACTTTGTGAAGCTACCCCCC
binding result [1]: no binding
binding result [2]: binds
binding result [3]: binds

B10: 14 (dsDNA)
DNA 1: GGGGGGTCAGGATTTTGTGTGTGGATTAACTGTATCATCCCCC
DNA 2: GGGGGATGATACAGTTAATCCACACACAAAATCCTGACCCCCC
binding result [1]: no binding
binding result [2]: no binding
binding result [3]: no binding

B11: 8 (dsDNA)
DNA 1: GGGGGGCTGTAACAGAATACCTGACAAAAGCAACTTCCCCC
DNA 2: GGGGGAAGTTGCTTTTGTCAGGTATTCTGTTACAGCCCCCC
binding result [1]: no binding
binding result [2]: no binding
binding result [3]: no binding

B12: 12 (dsDNA)
DNA 1: GGGGGAGTATGAGTTTGTATATGTTGATTAACCAAACACTCCCCC
DNA 2: GGGGGAGTGTTTGGTTAATCAACATATACAAACTCATACTCCCCC
binding result [1]: no binding
binding result [2]: binds
binding result [3]: no binding

B13: 16a (dsDNA)
DNA 1: GGGGGGTGAACCCTTTCAGATTTAGTGACGTAGCTTCACAAAGTGATTAACCCCC
DNA 2: GGGGGTTAATCACTTTGTGAAGCTACGTCACTAAATCTGAAAGGGTTCACCCCCC
binding result [1]: no binding
binding result [2]: binds
binding result [3]: binds

B14: 19 (dsDNA)
DNA 1: GGGGGGAAGGAAAATTGTTCCCTGACATTTTTGAACTGGGCCCCC
DNA 2: GGGGGCCCAGTTCAAAAATGTCAGGGAACAATTTTCCTTCCCCCC
binding result [1]: no binding
binding result [2]: no binding
binding result [3]: no binding

B15: 13 (dsDNA)
DNA 1: GGGGGTCTCCTGCTTTGTAGTCACAGAGTAGTCAAGAAGGGCTCCCCC
DNA 2: GGGGGAGCCCTTCTTGACTACTCTGTGACTACAAAGCAGGAGACCCCC
binding result [1]: no binding
binding result [2]: no binding
binding result [3]: no binding

B16: 23 (dsDNA)
DNA 1: GGGGGAATCTCTATCTTACTTCTTGTAAGTGTGGACAAATGCAGGTTCCCCC
DNA 2: GGGGGAACCTGCATTTGTCCACACTTACAAGAAGTAAGATAGAGATTCCCCC
binding result [1]: no binding
binding result [2]: no binding
binding result [3]: no binding

B17: 4a (dsDNA)
DNA 1: GGGGGGACTTAATTGTGAGTCTCTGTAAAATTAACAAACAAGTTACCCCCC
DNA 2: GGGGGGTAACTTGTTTGTTAATTTTACAGAGACTCACAATTAAGTCCCCCC
binding result [1]: no binding
binding result [2]: binds
binding result [3]: binds

B18: 5 (dsDNA)
DNA 1: GGGGGTGTAGGTCATTGTGGCCTCAAATTTGGTAATGTAACCCCC
DNA 2: GGGGGTTACATTACCAAATTTGAGGCCACAATGACCTACACCCCC
binding result [1]: no binding
binding result [2]: binds
binding result [3]: no binding

B19: 22 (dsDNA)
DNA 1: GGGGGTACATACAGCAAAATAATCTTTGTAGGGGGGACCCCC
DNA 2: GGGGGTCCCCCCTACAAAGATTATTTTGCTGTATGTACCCCC
binding result [1]: no binding
binding result [2]: no binding
binding result [3]: no binding

B20: 20 (dsDNA)
DNA 1: GGGGGCTCAGAGCTAGAAATATTTGTGGAATGGGCCCCC
DNA 2: GGGGGCCCATTCCACAAATATTTCTAGCTCTGAGCCCCC
binding result [1]: no binding
binding result [2]: no binding
binding result [3]: no binding

B21: 128 (dsDNA)
DNA 1: GGGGGAATATCAGTGTAATGATTAACAGACAATGGCAGAGGCCCCC
DNA 2: GGGGGCCTCTGCCATTGTCTGTTAATCATTACACTGATATTCCCCC
binding result [1]: binds
binding result [2]: no binding
binding result [3]: no binding

B22: 6 (dsDNA)
DNA 1: GGGGGAGGACTTAATTGTTCGCATTTCTGTATTCTGCCCCC
DNA 2: GGGGGCAGAATACAGAAATGCGAACAATTAAGTCCTCCCCC
binding result [1]: no binding
binding result [2]: binds
binding result [3]: binds

B23: 4c (dsDNA)
DNA 1: GGGGGTAAAATTAACAAACAAGTTACATTATCTAATATACACCCCC
DNA 2: GGGGGTGTATATTAGATAATGTAACTTGTTTGTTAATTTTACCCCC
binding result [1]: no binding
binding result [2]: binds
binding result [3]: binds

B24: 17 (dsDNA)
DNA 1: GGGGGTTTAAAGATTTGTTTCTTTATTATATGTAAGTACCCCC
DNA 2: GGGGGTACTTACATATAATAAAGAAACAAATCTTTAAACCCCC
binding result [1]: no binding
binding result [2]: binds
binding result [3]: binds

B25: 15 (dsDNA)
DNA 1: GGGGGAGATCTTTACAAATTTCTATATTAGAGTTTTTTGTCCCCC
DNA 2: GGGGGACAAAAAACTCTAATATAGAAATTTGTAAAGATCTCCCCC
binding result [1]: no binding
binding result [2]: no binding
binding result [3]: no binding
